Measurements: publication PMC5758903

B1: A1 -20/5' (structured_DNA)
DNA: CCTATGGTCCCCGCGTAGGTGGCAGCTCAAACCCGATTCGAGGAACATGCGTCGCAAAC
B2: Ref aptamer (ssDNA)
DNA: ACTGACTGACTGACTGACTGACTGACTGACTGACTGACTGACTGACTGACTGACTGACTGACTGACTGACTGACTGACT

Tests used:
[1] = target: T1, HisTag-PCNA (human, UniProt P12004 1-261); experiment: pull-down
[2] = target: PCNA (tag-free);DNA polymerase delta (human;human, UniProt P12004;P28340;P49005;Q15054;Q9HCU8 1-261;1-1107;1-469;1-466;1-107, |); experiment: EMSA
[3] = target: T1, HisTag-PCNA; experiment: ITC
[4] = target: DNA polymerase delta (human, UniProt P28340;P49005;Q15054;Q9HCU8 1-1107;1-469;1-466;1-107); experiment: EMSA
[5] = target: T1, HisTag-PCNA; experiment: pull-down titration

T1 sequence (P12004 whole entry): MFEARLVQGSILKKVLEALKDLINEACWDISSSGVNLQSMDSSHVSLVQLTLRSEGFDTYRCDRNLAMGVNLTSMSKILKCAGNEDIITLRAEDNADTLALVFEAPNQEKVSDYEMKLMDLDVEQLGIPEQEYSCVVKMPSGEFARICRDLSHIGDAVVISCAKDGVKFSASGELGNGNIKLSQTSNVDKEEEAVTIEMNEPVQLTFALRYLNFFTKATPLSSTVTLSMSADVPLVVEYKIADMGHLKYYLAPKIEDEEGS
DNA polymerase delta, sequence (P28340 whole entry, stated change not applied, chain 1 of 4): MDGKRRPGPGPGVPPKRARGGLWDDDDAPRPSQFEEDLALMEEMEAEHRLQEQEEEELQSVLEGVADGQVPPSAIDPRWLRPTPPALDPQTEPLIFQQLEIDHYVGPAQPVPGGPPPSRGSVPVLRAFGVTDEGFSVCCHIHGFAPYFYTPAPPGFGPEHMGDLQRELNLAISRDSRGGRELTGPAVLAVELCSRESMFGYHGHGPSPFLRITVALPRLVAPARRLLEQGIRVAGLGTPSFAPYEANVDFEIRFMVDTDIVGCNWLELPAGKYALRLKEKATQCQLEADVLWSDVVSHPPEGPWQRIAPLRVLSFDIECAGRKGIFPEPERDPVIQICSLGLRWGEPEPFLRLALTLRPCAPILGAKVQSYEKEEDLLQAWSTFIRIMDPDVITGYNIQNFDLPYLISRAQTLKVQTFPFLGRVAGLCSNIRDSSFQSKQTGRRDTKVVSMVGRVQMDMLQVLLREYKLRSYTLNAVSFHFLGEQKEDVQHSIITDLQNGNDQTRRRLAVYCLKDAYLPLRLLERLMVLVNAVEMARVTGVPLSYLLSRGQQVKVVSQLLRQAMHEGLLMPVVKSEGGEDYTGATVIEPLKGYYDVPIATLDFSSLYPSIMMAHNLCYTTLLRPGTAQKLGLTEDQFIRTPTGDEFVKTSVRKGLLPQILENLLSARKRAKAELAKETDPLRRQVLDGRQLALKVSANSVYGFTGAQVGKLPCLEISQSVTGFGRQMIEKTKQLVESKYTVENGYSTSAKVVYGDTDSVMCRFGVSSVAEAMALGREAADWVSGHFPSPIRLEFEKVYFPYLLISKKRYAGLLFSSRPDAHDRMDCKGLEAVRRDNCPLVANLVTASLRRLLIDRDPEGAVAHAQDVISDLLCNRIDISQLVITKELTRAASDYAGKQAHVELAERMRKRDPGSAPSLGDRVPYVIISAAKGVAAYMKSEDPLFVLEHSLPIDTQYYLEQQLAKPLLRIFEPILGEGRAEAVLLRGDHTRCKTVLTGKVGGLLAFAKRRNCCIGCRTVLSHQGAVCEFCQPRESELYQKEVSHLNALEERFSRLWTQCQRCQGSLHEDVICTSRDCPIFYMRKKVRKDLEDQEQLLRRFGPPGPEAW
DNA polymerase delta, sequence (P49005 whole entry, stated change not applied, chain 2 of 4): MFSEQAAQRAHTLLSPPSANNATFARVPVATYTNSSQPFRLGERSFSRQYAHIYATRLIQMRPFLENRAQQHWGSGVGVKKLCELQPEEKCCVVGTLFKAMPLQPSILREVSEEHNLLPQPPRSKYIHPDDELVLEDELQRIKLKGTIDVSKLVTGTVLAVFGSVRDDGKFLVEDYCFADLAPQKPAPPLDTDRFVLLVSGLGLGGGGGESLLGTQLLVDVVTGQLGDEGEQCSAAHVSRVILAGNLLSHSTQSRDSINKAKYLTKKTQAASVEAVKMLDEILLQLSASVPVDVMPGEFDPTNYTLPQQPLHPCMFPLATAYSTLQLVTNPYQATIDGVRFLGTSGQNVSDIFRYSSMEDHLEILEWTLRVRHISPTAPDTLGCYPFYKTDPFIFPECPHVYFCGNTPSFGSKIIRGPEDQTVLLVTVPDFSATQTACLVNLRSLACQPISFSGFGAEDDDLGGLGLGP
DNA polymerase delta, sequence (Q15054 whole entry, stated change not applied, chain 3 of 4): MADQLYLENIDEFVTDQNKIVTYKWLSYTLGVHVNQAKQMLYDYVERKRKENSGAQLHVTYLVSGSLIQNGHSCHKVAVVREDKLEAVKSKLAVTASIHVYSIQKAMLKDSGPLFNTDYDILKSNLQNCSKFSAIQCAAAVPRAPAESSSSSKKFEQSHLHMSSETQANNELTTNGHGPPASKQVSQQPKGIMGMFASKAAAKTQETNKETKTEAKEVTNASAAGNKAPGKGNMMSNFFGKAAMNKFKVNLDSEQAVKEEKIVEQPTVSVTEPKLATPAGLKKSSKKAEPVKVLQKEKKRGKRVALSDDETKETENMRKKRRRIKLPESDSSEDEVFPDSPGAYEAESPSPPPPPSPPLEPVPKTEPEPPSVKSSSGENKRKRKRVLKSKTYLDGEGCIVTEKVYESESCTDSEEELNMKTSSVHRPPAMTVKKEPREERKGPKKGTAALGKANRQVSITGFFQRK
DNA polymerase delta, sequence (Q9HCU8 whole entry, stated change not applied, chain 4 of 4): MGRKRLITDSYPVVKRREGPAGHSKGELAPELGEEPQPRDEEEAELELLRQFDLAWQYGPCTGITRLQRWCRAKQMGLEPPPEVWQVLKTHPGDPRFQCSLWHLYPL

Row | Binder | binding result [1] | binding result [2] | Kd [3] [µM] | binding result [4] | Kd [5] [µM]
1 | CATGCTTCCCCAGGGAGATGCCTATGGTCCCCGCGTAGG (structured_DNA) [A1 -40/3'] | no binding |  |  |  | 
2 | CATGCTTCCCCAGGGAGATGCCTATGGTCCCCGCGTAGGTGGCAGCTCA (structured_DNA) [alpha-PCNA aptamer (A1 -30/3')] |  | binds | 2 ± 0.64 | no binding | 5.1 ± 0.59
3 | B1 | no binding |  |  |  | 
4 | B2 | no binding |  |  |  | 
